Results as given in patent publication US20160047001A1, “Sept4/ARTS AS A TUMOR SUPPRESSOR IN THE DIAGNOSIS, PROGNOSIS AND TREATMENT OF HEPATIC DISORDERS” (CARMEL-HAIFA UNIVERSITY ECONOMIC CORPORATION LTD., priority 2013, published 2016).
“Also recorded” adds a separate entry of the source.

Assays:
ARTS mRNA = test: RT-PCR of ARTS mRNA after exposure to chromatin-modifying drugs; type: cell-based, human; details: for ARTS mRNA level: HCC cell-lines, individual treatment, AZA 10 μM, TSA 1 μM; for ARTS levels: PH5CH non-malignant hepatocyte cell-line
Procedure: Quantitative reverse transcription polymerase chain reactions (qRT-PCR) incorporating SYBR Green (Applied Biosystems) were carried-out using a Realplex qPCR Mastercycler (Eppendorf; Hauppauge, N.Y.). For semi-quantitative PCR, total RNA was extracted from cell-lines using Trizol reagent (Invitrogen, Carlsbad, Calif.) and in turn, was used to synthesize cDNA using random primers, reagents, and protocol provided in the Superscript 1st strand synthesis kit (Invitrogen). Normalized amounts of cDNA served as template in standard PCR using AmpliTaq DNA polymerase (Applied Biosystems). Immunoblotting was performed as previously described in (7). Cell extracts were prepared from tumor and adjacent non-tumor control tissues that were excised from the liver of sacrificed mice, homogenized by Polytron PT 2100 (Brinkman) in Triton X-100 lysis buffer and clarified by centrifugation. Extracts were normalized for protein concentration by Bradford assay (BioRad) prior to immunoblotting procedures. Signal detection was performed with enhanced chemiluminescence kit (Amersham). The following primary antibodies were used: anti-A6 (gift from Dr. V. Factor NCI/NIH), anti-Flag and anti-β-actin (Sigma); anti-XIAP (Becton Dickinson); anti-cIAP-1 (R&D Systems); anti-β-catenin and anti-Survivin (Cell Signaling), anti-cytokeratin-8 (Fitzgerald Indust. Intl., Concord, Mass.). 5-Aza-2′deoxycytidine (AZA), Trichostatin A (TSA), and cycloheximide (CHX) were purchased from Sigma-Alrich. Tumor-necrosis factor-α, the anti-Fas antibody (Jo-2), and the in vitro methylated genomic Hela DNA were obtained from Peprotech, Pharminogen, and New England Biolabs, respectively. To examine the possibility of epigenetic regulation, chromatin-modifying drugs were tested for their ability to influence ARTS expression. Cells were exposed to DNA-methyltransferase and HDAC inhibitors 5′ aza-cytosine (AZA) and trichostatin A (TSA), respectively.

ARTS = test: Western blot of ARTS knockdown by hairpins in NIH3T3 fibroblasts; type: cell-based
Procedure: (§1) miR30-designed shRNAs were subcloned into the pLMP (MSCV-based) retroviral vector as previously described (30). Briefly, individual shRNAs were synthesized as 97 base-pair oligos (Sigma Genosys), PCR-amplified, ligated into pLMP following EcoRI/XhoI-digestion.
Immunoblotting was performed as previously described in (7). Cell extracts were prepared from tumor and adjacent non-tumor control tissues that were excised from the liver of sacrificed mice, homogenized by Polytron PT 2100 (Brinkman) in Triton X-100 lysis buffer and clarified by centrifugation. Extracts were normalized for protein concentration by Bradford assay (BioRad) prior to immunoblotting procedures. Signal detection was performed with enhanced chemiluminescence kit (Amersham). The following primary antibodies were used: anti-A6 (gift from Dr. V. Factor NCI/NIH), anti-Flag and anti-β-actin (Sigma); anti-XIAP (Becton Dickinson); anti-cIAP-1 (R&D Systems); anti-β-catenin and anti-Survivin (Cell Signaling), anti-cytokeratin-8 (Fitzgerald Indust. Intl., Concord, Mass.). 5-Aza-2′deoxycytidine (AZA), Trichostatin A (TSA), and cycloheximide (CHX) were purchased from Sigma-Alrich. Tumor-necrosis factor-α, the anti-Fas antibody (Jo-2), and the in vitro methylated genomic Hela DNA were obtained from Peprotech, Pharminogen, and New England Biolabs, respectively.

Sept4/H5-Flag = test: Western blot (anti-Flag) of Sept4/H5-Flag knockdown in NIH3T3 fibroblasts; type: cell-based; details: NIH3T3 fibroblasts stably expressing Sept4/H5-Flag; retroviral shRNA; anti-Flag immunoblot
Procedure: FIG. 5I. A pan-Sept4- and Sept4/H5-specific short-hairpins promote efficient knowndown. […] NIH3T3 fibroblasts stably expressing Flag-epitope tagged Sept4/H5 (Sept4/H5-Flag) were transduced with retroviruses harboring the indicated shRNAs, a non-silencing control, or left un-infected Immunoblotting was performed with anti-Flag antibody to detect Sept4/H5-Flag expression (red arrow).
as §1
Immunoblotting was performed as previously described in (7). Cell extracts were prepared from tumor and adjacent non-tumor control tissues that were excised from the liver of sacrificed mice, homogenized by Polytron PT 2100 (Brinkman) in Triton X-100 lysis buffer and clarified by centrifugation. Extracts were normalized for protein concentration by Bradford assay (BioRad) prior to immunoblotting procedures. Signal detection was performed with enhanced chemiluminescence kit (Amersham). […]

PHM-1 hepatoblasts = test: Growth of PHM-1 hepatoblasts after sub-cutaneous transplantation into host mice; type: in vivo; details: PHM-1 cells carrying the hairpin, sub-cutaneous injection into host mice
Text: FIG. 5D. Growth of PHM-1 hepatoblasts following their sub-cutaneous transplantation into host mice. Values are the mean±standard deviation of four independent experiments. P-values: *P=0.04, **P=0.03, and ***P=0.01.
Details on isolation, culture, retrovirus-mediated gene transfer, and sub-cutaneous transplantation of hepatoblasts can be found in (30). Cell viability was monitored by propidium iodide (PI) nuclear staining and flow cytometric analysis.

`CC(/C=C/C(=O)NO)=C\[C@@H](C)C(=O)c1ccc(N(C)C)cc1` [TSA, Trichostatin A] was tested, and the “ARTS mRNA level” value (ARTS mRNA) was “upregulation of ARTS mRNA; also recorded: induced ARTS mRNA to levels comparable to those observed in normal hepatocytes” and the ARTS levels (ARTS mRNA) was “little appreciable effect”.

In the case of `Nc1ncn([C@H]2C[C@H](O)[C@@H](CO)O2)c(=O)n1` [AZA, 5-Aza-2′deoxycytidine], the “ARTS mRNA level” value (ARTS mRNA) is reported as “upregulation of ARTS mRNA; also recorded: induced ARTS mRNA to levels comparable to those observed in normal hepatocytes” and the ARTS levels (ARTS mRNA) is reported as “little appreciable effect”.

B1: sh-ARTS-2: miR30-designed shRNA specifically targeting ARTS, in pLMP retroviral vector (nucleic acid)
chain: TGCTGTTGACAGTGAGCGAAACAGGCCGAGTAGCACCACATAGTGAAGCCACAGATGTATGTGGTGCTACTCGGCCTGTTCTGCCTACTGCCTCGGA
With B1 the “ARTS levels (knockdown)” value (ARTS) was “capable of reducing ARTS levels”.

B2: sh-ARTS-3: miR30-designed shRNA specifically targeting ARTS, in pLMP retroviral vector (nucleic acid)
chain: TGCTGTTGACAGTGAGCGACGGGTGGTCACTGATTCCTGTTAGTGAAGCCACAGATGTAACAGGAATCAGTGACCACCCGCTGCCTACTGCCTCGGA
With B2 the “ARTS levels (knockdown)” value (ARTS) was “capable of reducing ARTS levels”.

B3: sh-panSept4: miR30-designed shRNA targeting all Sept4-isoforms, including ARTS (nucleic acid)
chain: TGCTGTTGACAGTGAGCGCAAGCACGCAGTGGATATAGAATAGTGAAGCCACAGATGTATTCTATATCCACTGCGTGCTTATGCCTACTGCCTCGGA
In the case of B3, the “ARTS levels (knockdown)” value (ARTS) is reported as “capable of reducing ARTS levels”, the Sept4/H5 knockdown (Sept4/H5-Flag) is reported as “highly effective Sept4/H45 knockdown” and the tumor growth (PHM-1 hepatoblasts) is reported as “promoted tumor growth”.

B4: sh-ARTS-1: miR30-designed shRNA specifically targeting ARTS, in pLMP retroviral vector (nucleic acid)
chain: TGCTGTTGACAGTGAGCGCAAGGGAACAGGCCGAGTAGCATAGTGAAGCCACAGATGTATGCTACTCGGCCTGTTCCCTTATGCCTACTGCCTCGGA
B4 was tested, and the “ARTS levels (knockdown)” value (ARTS) was “capable of reducing ARTS levels”.
